One assay deals with T1, 4H327-AA.
T1 chain: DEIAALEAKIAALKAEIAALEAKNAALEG
Briefly: two-hybrid library CCmax.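 Note: natural log of median RNA to DNA barcode read ratio; higher means stronger binding.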 The conditions noted are these: mean of both orientations.

In another assay the target is T2, 4H369-AA.
T2 chain: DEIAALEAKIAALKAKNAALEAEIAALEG
Briefly: two-hybrid library CCmax.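 Note: natural log of median RNA to DNA barcode read ratio; higher means stronger binding.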 The conditions noted are these: mean of both orientations.

The next assay addresses T3, 4H2726-AA.
T3 chain: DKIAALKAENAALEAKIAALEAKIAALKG
Briefly: two-hybrid library CCmax.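 Note: natural log of median RNA to DNA barcode read ratio; higher means stronger binding.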 The conditions noted are these: mean of both orientations.

For a further assay, the target named is T4, 4H481-AA.
T4 chain: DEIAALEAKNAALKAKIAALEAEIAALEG
Description: two-hybrid library CCmax.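 Note: natural log of median RNA to DNA barcode read ratio; higher means stronger binding.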 The conditions noted are these: mean of both orientations.

The target in another assay is T5, 4H4033-AA.
T5 chain: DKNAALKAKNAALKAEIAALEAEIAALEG
Briefly: two-hybrid library CCmax.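 Note: natural log of median RNA to DNA barcode read ratio; higher means stronger binding.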 The conditions noted are these: mean of both orientations.

For the next assay, the target named is T6, 4H55-AA.
T6 chain: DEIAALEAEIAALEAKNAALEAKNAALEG
Briefly: two-hybrid library CCmax.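 Note: natural log of median RNA to DNA barcode read ratio; higher means stronger binding.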

The target of another assay is T7, 4H3922-AA.
T7 chain: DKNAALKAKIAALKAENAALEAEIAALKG
Briefly: two-hybrid library CCmax. The conditions noted are these: mean of both orientations.

The target of a further assay is T8, 4H3625-AA.
T8 chain: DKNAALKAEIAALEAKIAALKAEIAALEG
Briefly: two-hybrid library CCmax. The conditions noted are these: mean of both orientations.

Another assay deals with T9, 4H2614-AA.
T9 chain: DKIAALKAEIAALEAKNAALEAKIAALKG
Briefly: two-hybrid library CCmax. The conditions noted are these: mean of both orientations.

Another assay deals with T10, 4H2608-AA.
T10 chain: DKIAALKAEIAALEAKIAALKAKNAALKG
Description: two-hybrid library CCmax. The conditions noted are these: mean of both orientations.

The target of another assay is T11, 4H3605-AA.
T11 chain: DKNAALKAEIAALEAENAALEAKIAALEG
Briefly: two-hybrid library CCmax. The conditions noted are these: mean of both orientations.

The target of another assay is T12, 4H2513-AA.
T12 chain: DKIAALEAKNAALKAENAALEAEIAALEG
Briefly: two-hybrid library CCmax.

The target in another assay is T13, 4H662-AA.
T13 chain: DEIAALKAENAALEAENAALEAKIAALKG
Briefly: two-hybrid library CCmax. The conditions noted are these: mean of both orientations.

Another assay addresses T14, 4H2536-AA.
T14 chain: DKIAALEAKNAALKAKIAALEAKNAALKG
Description: two-hybrid library CCmax.

A further assay concerns the target T15, 4H2935-AA.
T15 chain: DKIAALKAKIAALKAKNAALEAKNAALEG
Briefly: two-hybrid library CCmax. The conditions noted are these: mean of both orientations.

The target in another assay is T16, 4H3664-AA.
T16 chain: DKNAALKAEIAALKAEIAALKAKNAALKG
Briefly: two-hybrid library CCmax. The conditions noted are these: mean of both orientations.

The target of the next assay is T17, 4H3855-bA.
T17 chain: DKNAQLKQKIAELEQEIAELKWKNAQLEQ
Description: two-hybrid library CCNG1.

The next assay concerns the target T18, 4H3354-bA.
T18 chain: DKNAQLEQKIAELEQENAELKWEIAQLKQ
Description: two-hybrid library CCNG1.

The next assay has as its target T19, 4H338-bA.
T19 chain: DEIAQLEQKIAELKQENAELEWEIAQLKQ
Description: two-hybrid library CCNG1.

The next assay concerns the target T20, 4H883-bA.
T20 chain: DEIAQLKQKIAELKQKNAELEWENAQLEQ
Briefly: two-hybrid library CCNG1.

In another assay the target is T21, 4H331-bA.
T21 chain: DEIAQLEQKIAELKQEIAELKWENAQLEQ
Description: two-hybrid library CCNG1.

The target of the next assay is T22, 4H953-bA.
T22 chain: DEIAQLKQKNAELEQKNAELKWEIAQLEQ
Description: two-hybrid library CCNG1.

The next assay concerns the target T23, 4H4001-bA.
T23 chain: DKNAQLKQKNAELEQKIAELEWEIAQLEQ
Briefly: two-hybrid library CCNG1.

The next assay deals with T24, 4H3427-bA.
T24 chain: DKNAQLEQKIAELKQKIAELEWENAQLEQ
Briefly: two-hybrid library CCNG1.

The next assay has as its target T25, 4H3185-bA.
T25 chain: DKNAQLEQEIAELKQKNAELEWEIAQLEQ
Description: two-hybrid library CCNG1.

Another assay deals with T26, 4H454-bA.
T26 chain: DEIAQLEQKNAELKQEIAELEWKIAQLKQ
Briefly: two-hybrid library CCNG1.

A further assay concerns the target T27, 4H754-bA.
T27 chain: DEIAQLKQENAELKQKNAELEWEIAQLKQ
Description: two-hybrid library CCNG1.

The target in another assay is T28, 4H918-bA.
T28 chain: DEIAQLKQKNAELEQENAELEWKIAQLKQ
Briefly: two-hybrid library CCNG1.

For a further assay, the target named is T29, 4H908-bA.
T29 chain: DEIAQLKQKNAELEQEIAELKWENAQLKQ
Description: two-hybrid library CCNG1. The conditions noted are these: mean of both orientations.

The next assay deals with T30, 4H967-bA.
T30 chain: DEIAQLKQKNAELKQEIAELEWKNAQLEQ
Briefly: two-hybrid library CCNG1.

The target in the next assay is T31, 4H717-bA.
T31 chain: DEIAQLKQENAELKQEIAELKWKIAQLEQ
Briefly: two-hybrid library CCNG1.

For another assay, the target named is T32, 4H2729-bA.
T32 chain: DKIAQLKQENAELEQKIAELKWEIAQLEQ
Briefly: two-hybrid library CCNG1.

Another assay has as its target T33, 4H687-bA.
T33 chain: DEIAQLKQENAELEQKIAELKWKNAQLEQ
Briefly: two-hybrid library CCNG1.

For a further assay, the target named is T34, 4H72-bA.
T34 chain: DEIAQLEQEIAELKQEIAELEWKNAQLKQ
Briefly: two-hybrid library CCNG1.

The target of another assay is T35, 4H607-bA.
T35 chain: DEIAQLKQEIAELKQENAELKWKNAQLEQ
Briefly: two-hybrid library CCNG1.

Another assay addresses T36, 4H568-bA.
T36 chain: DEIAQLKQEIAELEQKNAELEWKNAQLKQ
Briefly: two-hybrid library CCNG1.

The target of another assay is T37, 4H3782-bA.
T37 chain: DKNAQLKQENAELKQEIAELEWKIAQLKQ
Description: two-hybrid library CCNG1.

The target of the next assay is T38, 4H797-bA.
T38 chain: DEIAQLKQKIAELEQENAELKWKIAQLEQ
Briefly: two-hybrid library CCNG1.

A further assay concerns the target T39, 4H3112-bA.
T39 chain: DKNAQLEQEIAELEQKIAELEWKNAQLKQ
Briefly: two-hybrid library CCNG1.

B1: 4H2513-AA (peptide)
chain: DKIAALEAKNAALKAENAALEAEIAALEG
For B1, the interaction score with 4H327-AA was -1.74; in the assay with 4H369-AA it was -1.79; in the assay with 4H2726-AA, 0.913; in the assay with 4H481-AA, -1.36; with 4H4033-AA it was -1.46; with 4H55-AA, -1.88. For the same molecule, the interaction score with 4H3922-AA was -1.74; with 4H3625-AA it was -2; with 4H2614-AA it was 0.461; with 4H2608-AA, -1.07; with 4H3605-AA, -1.25; with 4H2513-AA, -1.49. Also, the interaction score was 1.22 in the assay with 4H662-AA, -0.747 in the assay with 4H2536-AA, -2.01 with 4H2935-AA and -1.85 with 4H3664-AA.

B2: 4H2729-bA (peptide)
chain: DKIAQLKQENAELEQKIAELKWEIAQLEQ
With B2, the interaction score with 4H3855-bA is -0.46; with 4H3354-bA it was -0.919; in the assay with 4H338-bA it was -0.713; with 4H883-bA, -1.72; in the assay with 4H331-bA, -1.18; with 4H953-bA, -1.01. Also, the interaction score was -0.575 with 4H4001-bA; -0.88 with 4H3427-bA; -0.331 with 4H3185-bA; 1.84 with 4H454-bA; -0.709 in the assay with 4H754-bA; 1.73 with 4H918-bA. Moreover, the interaction score with 4H908-bA is -0.401; in the assay with 4H967-bA, 0.0132; with 4H717-bA, -1.35; in the assay with 4H2729-bA it was -0.254; with 4H687-bA it was -1.51; with 4H72-bA, -0.336. The interaction score was -1.29 with 4H607-bA; -1.78 with 4H568-bA; 0.712 with 4H3782-bA; -1.21 in the assay with 4H797-bA; -0.141 with 4H3112-bA.

These data come from paper PMC10397247.
